# Values of other authors, collected in PMC5992718.
# Molecular target: PD-L1 (Homo sapiens) (UniProt Q9NZQ7)
# Chain of UniProt Q9NZQ7 (Q9NZQ7 19-238): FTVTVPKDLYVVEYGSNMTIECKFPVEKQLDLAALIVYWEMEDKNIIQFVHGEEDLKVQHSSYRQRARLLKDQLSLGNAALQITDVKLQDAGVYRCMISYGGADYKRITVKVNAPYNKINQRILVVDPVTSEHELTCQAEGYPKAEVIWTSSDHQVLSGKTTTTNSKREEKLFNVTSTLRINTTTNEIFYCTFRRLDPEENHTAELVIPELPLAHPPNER
substance,measurement,value
PD-1 (from UniProt Q02242),Kd,29.8 µM
